The source of these data is the supplement of paper PMC9112550, “Optimization of the antimicrobial peptide Bac7 by deep mutational scanning” (BMC Biology, 2022).

The subject of this data set is Escherichia coli TOP10. In words: shrunken log2 fold change of peptide-encoding DNA abundance (4.5 h post-induction vs induction); higher = less antimicrobial activity (less host growth inhibition). The conditions noted are these: time post-induction: 4.5 h; library: site-saturation at positions 5, 18, 19, 20.
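Also: peptides expressed intracellularly from a pBAD plasmid library in pooled LB shake-flask culture, induced with 0.3% L-arabinose, DNA abundance read by NGS, three biological replicates, DESeq2 with apeglm shrinkage.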

Regarding RRIRARPPRLPRPRPRPKKEPRP, the “shrunken log2 fold change” value was found to be 0.0428.

For RRIRMRPPRLPRPRPRPFRMPRP, the “shrunken log2 fold change” value came to 0.00199. Then RRIRIRPPRLPRPRPRPAARPRP, with 0.278; and RRIRYRPPRLPRPRPRPQDTPRP, with -0.547.

Consider RRIRTRPPRLPRPRPRPEDTPRP, for which the “shrunken log2 fold change” value was -0.045. Then RRIRARPPRLPRPRPRPFKWPRP, with -0.176; and RRIRDRPPRLPRPRPRPEHTPRP, with 0.225; and RRIRNRPPRLPRPRPRPEWHPRP, with -0.285.

Turning to RRIRVRPPRLPRPRPRPAACPRP, the “shrunken log2 fold change” value worked out at 0.244. Then RRIRQRPPRLPRPRPRPEHLPRP, with -0.00142; and RRIRDRPPRLPRPRPRPGQDPRP, with 0.945. For the sequence RRIRYRPPRLPRPRPRPYYIPRP, the “shrunken log2 fold change” value is -1.83. Then RRIRSRPPRLPRPRPRPVMHPRP, with 0.00492; and RRIRTRPPRLPRPRPRPFPLPRP, with -0.147.

Take RRIRCRPPRLPRPRPRPTYNPRP: the “shrunken log2 fold change” value is -0.722.

For RRIRSRPPRLPRPRPRPWEDPRP, the “shrunken log2 fold change” value was -0.0124. To RRIRERPPRLPRPRPRPSVSPRP belongs -0.335.

Regarding RRIRQRPPRLPRPRPRPSCPPRP, the “shrunken log2 fold change” value was -0.037. Then RRIRHRPPRLPRPRPRPDMAPRP, with -0.0459; and RRIRQRPPRLPRPRPRPPMQPRP, with -0.055; and RRIRERPPRLPRPRPRPWSMPRP, with -0.707. Take RRIRDRPPRLPRPRPRPFAAPRP: the “shrunken log2 fold change” value stood at 1.62.

In the case of RRIRERPPRLPRPRPRPYCFPRP, the “shrunken log2 fold change” value was -0.511.

For RRIRKRPPRLPRPRPRPNPSPRP, the “shrunken log2 fold change” value was found to be 0.108. To RRIRSRPPRLPRPRPRPKERPRP belongs 0.265. For the sequence RRIRARPPRLPRPRPRPTFCPRP, the “shrunken log2 fold change” value came out at 0.386. To RRIRVRPPRLPRPRPRPHNTPRP belongs -0.353; to RRIRHRPPRLPRPRPRPHTMPRP, -0.0685. To RRIRHRPPRLPRPRPRPQWTPRP belongs -0.00992; to RRIRCRPPRLPRPRPRPVQRPRP, 0.123; to RRIRDRPPRLPRPRPRPGYWPRP, 0.242. Turning to RRIRPRPPRLPRPRPRPFASPRP, the “shrunken log2 fold change” value was 0.132. Then RRIRERPPRLPRPRPRPQCVPRP, with -0.0437; and RRIRERPPRLPRPRPRPAWFPRP, with 0.187; and RRIRHRPPRLPRPRPRPDDKPRP, with -0.359. To RRIRCRPPRLPRPRPRPLPFPRP belongs -0.71; to RRIRVRPPRLPRPRPRPAKSPRP, -0.112; to RRIRTRPPRLPRPRPRPAVLPRP, 0.153.

As for RRIRIRPPRLPRPRPRPLEAPRP, the “shrunken log2 fold change” value was -0.118. To RRIRKRPPRLPRPRPRPRMAPRP belongs 0.818; to RRIRVRPPRLPRPRPRPCLLPRP, -0.072; to RRIRDRPPRLPRPRPRPTAQPRP, 0.0542.

Turning to RRIRQRPPRLPRPRPRPSENPRP, the “shrunken log2 fold change” value is -0.0264. To RRIRSRPPRLPRPRPRPALFPRP belongs 0.069.

In the case of RRIRCRPPRLPRPRPRPLLPPRP, the “shrunken log2 fold change” value is -0.143. To RRIRFRPPRLPRPRPRPAISPRP belongs -0.193; to RRIRFRPPRLPRPRPRPKDGPRP, -0.184; to RRIRKRPPRLPRPRPRPKISPRP, -0.0246.

As to RRIRARPPRLPRPRPRPMDKPRP, the “shrunken log2 fold change” value is 0.0591.

For RRIRHRPPRLPRPRPRPEIPPRP, the “shrunken log2 fold change” value was -0.111. To RRIRQRPPRLPRPRPRPNWDPRP belongs 0.126; to RRIRIRPPRLPRPRPRPIDLPRP, -0.179; to RRIRQRPPRLPRPRPRPPMKPRP, 0.00136. Then RRIRQRPPRLPRPRPRPSNTPRP, with -0.824; and RRIRHRPPRLPRPRPRPCQGPRP, with -0.00822.

In the case of RRIRFRPPRLPRPRPRPLWIPRP, the “shrunken log2 fold change” value was -0.624. Then RRIRPRPPRLPRPRPRPGNIPRP, with -0.000778. To RRIRCRPPRLPRPRPRPMWNPRP belongs -0.195; to RRIRARPPRLPRPRPRPGFVPRP, 0.42. Then RRIRDRPPRLPRPRPRPQVMPRP, with 0.0256.

On to RRIRCRPPRLPRPRPRPHSVPRP, for which the “shrunken log2 fold change” value is -0.613. Turning to RRIRCRPPRLPRPRPRPHNQPRP, the “shrunken log2 fold change” value is -0.565. To RRIRFRPPRLPRPRPRPMWEPRP belongs -0.232; to RRIRSRPPRLPRPRPRPHDVPRP, -0.0229.

With RRIRQRPPRLPRPRPRPFLEPRP, the “shrunken log2 fold change” value is -0.155. As to RRIRGRPPRLPRPRPRPGKIPRP, the “shrunken log2 fold change” value is 1.93. Then RRIRVRPPRLPRPRPRPNCRPRP, with -0.0746; and RRIRFRPPRLPRPRPRPLWEPRP, with -0.12; and RRIRVRPPRLPRPRPRPGISPRP, with -0.49. To RRIRNRPPRLPRPRPRPGDHPRP belongs -0.0463; to RRIRVRPPRLPRPRPRPACQPRP, 0.168.

Regarding RRIRGRPPRLPRPRPRPHLNPRP, the “shrunken log2 fold change” value was 0.0325.

As to RRIRCRPPRLPRPRPRPPGTPRP, the “shrunken log2 fold change” value was found to be 0.519. To RRIRARPPRLPRPRPRPPTCPRP belongs 0.559; to RRIRCRPPRLPRPRPRPQHFPRP, -0.0667; to RRIRGRPPRLPRPRPRPITTPRP, 0.407.

On to RRIRPRPPRLPRPRPRPHVKPRP, for which the “shrunken log2 fold change” value was -0.013. To RRIRTRPPRLPRPRPRPCAPPRP belongs -0.142; to RRIRYRPPRLPRPRPRPQHWPRP, 0.0376. To RRIRFRPPRLPRPRPRPKCVPRP belongs -0.184; to RRIRSRPPRLPRPRPRPGSPPRP, 0.106. To RRIRRRPPRLPRPRPRPAWLPRP belongs 0.505; to RRIRSRPPRLPRPRPRPGGWPRP, 0.705; to RRIRGRPPRLPRPRPRPMSWPRP, 0.252. Regarding RRIRVRPPRLPRPRPRPMWQPRP, the “shrunken log2 fold change” value is -0.0393. As to RRIRKRPPRLPRPRPRPLIKPRP, the “shrunken log2 fold change” value is -0.338. With RRIRIRPPRLPRPRPRPLPDPRP, the “shrunken log2 fold change” value amounted to 0.0943.

RRIRTRPPRLPRPRPRPTFPPRP: the “shrunken log2 fold change” value is -0.0187.

For RRIRRRPPRLPRPRPRPYWVPRP, the “shrunken log2 fold change” value came to 0.0443. Consider RRIRMRPPRLPRPRPRPANDPRP, for which the “shrunken log2 fold change” value came out at 0.0988. Consider RRIRSRPPRLPRPRPRPFRPPRP, for which the “shrunken log2 fold change” value was -0.249. Then RRIRKRPPRLPRPRPRPWIHPRP, with -0.145; and RRIRKRPPRLPRPRPRPDPGPRP, with 0.335.

For the sequence RRIRDRPPRLPRPRPRPIDFPRP, the “shrunken log2 fold change” value came out at 0.132.

For the sequence RRIRGRPPRLPRPRPRPWCLPRP, the “shrunken log2 fold change” value was -0.262.

Consider RRIRYRPPRLPRPRPRPVTFPRP, for which the “shrunken log2 fold change” value is -0.0285. Then RRIRCRPPRLPRPRPRPICWPRP, with 0.202. With RRIRFRPPRLPRPRPRPGIYPRP, the “shrunken log2 fold change” value was -0.184.

As to RRIRRRPPRLPRPRPRPCNCPRP, the “shrunken log2 fold change” value was -0.0759. Turning to RRIRHRPPRLPRPRPRPWDAPRP, the “shrunken log2 fold change” value is -0.101. Then RRIRRRPPRLPRPRPRPRKVPRP, with 0.602; and RRIRKRPPRLPRPRPRPSLYPRP, with 0.0834.

Consider RRIRMRPPRLPRPRPRPWLQPRP, for which the “shrunken log2 fold change” value is -0.000921. Then RRIRQRPPRLPRPRPRPDMHPRP, with 0.161; and RRIRDRPPRLPRPRPRPSGTPRP, with -0.199. To RRIRVRPPRLPRPRPRPDQTPRP belongs -0.002. With RRIRERPPRLPRPRPRPDNWPRP, the “shrunken log2 fold change” value was -0.103. To RRIRFRPPRLPRPRPRPLPYPRP belongs -0.101.

In the case of RRIRQRPPRLPRPRPRPHNGPRP, the “shrunken log2 fold change” value was -0.072. To RRIRTRPPRLPRPRPRPDQNPRP belongs 0.0691; to RRIRPRPPRLPRPRPRPRKYPRP, -0.352; to RRIRMRPPRLPRPRPRPCAFPRP, 0.121.

In the case of RRIRKRPPRLPRPRPRPWHMPRP, the “shrunken log2 fold change” value is -0.00936.

Turning to RRIRLRPPRLPRPRPRPNLNPRP, the “shrunken log2 fold change” value was -0.716. Then RRIRCRPPRLPRPRPRPECNPRP, with -0.0881. Turning to RRIRYRPPRLPRPRPRPSTHPRP, the “shrunken log2 fold change” value came to 0.396.

For RRIRTRPPRLPRPRPRPLWFPRP, the “shrunken log2 fold change” value was -0.489. In the case of RRIRTRPPRLPRPRPRPRTIPRP, the “shrunken log2 fold change” value is 0.0752.

As to RRIRYRPPRLPRPRPRPGNEPRP, the “shrunken log2 fold change” value is -0.229.

As for RRIRHRPPRLPRPRPRPIDTPRP, the “shrunken log2 fold change” value is -0.291. RRIRRRPPRLPRPRPRPVIYPRP: the “shrunken log2 fold change” value is 0.0526. To RRIRIRPPRLPRPRPRPEWIPRP belongs 0.0384; to RRIRTRPPRLPRPRPRPMLLPRP, -0.0757; to RRIRARPPRLPRPRPRPYFYPRP, -0.619. Then RRIRYRPPRLPRPRPRPYKIPRP, with -0.573.
